For two variants, response (normalized to GFP) results are on record in article PMC6900781.

The labels stand for the following.
B1: HA-dCENP-C(1264-1411) [Drosophila melanogaster] / CAL1-GFP-LacI [Drosophila melanogaster] (parent)
chain 1: GPVVFSTPLRDEQEEASTKLMQWLRGVGDAPPSASMSDENASVSSANELIFCQVDGIDYAFYNTKEKAMLGYMRFKPYQKRSMKQAKVHPLKLLVQFGEFNVETLAVGEEKEVHSVLRVGDMIEIDRGTRYSIQNAIDKVSVLMCIRS
chain 2: MANAVVDEETLEAMVYERSKAWSSKMADFASLEDGMEIDVAEFDNLFHGEDEDPDLDDVAKEAVEDNVPDEAKLEMGHINATSVTELTLILCANEDNEAKAEIEEILNQTVPVVEEHKRKWREAGLDRILDTFDEKQIEHHVGRWMRRHNSVYLEASPPKYLPPHHNSISDESDESMHSIDTARYIQQSRRRNAHMTNKNMTTIKMYRKHSHKRDELRAKYAYGDEQEHRHHMQAVLLRRRERERQLAYLASTPMQCVYSSGHHMRRKNLRKRRINSWMFDSASSSEEDTSFGGCDCHSCRRHYALSRSVYQSCPYGRGQREYHHRQMASRTMHTMRRQHTFDMEMDLRPRLPENECSCCNSDRLCSNVIHIANSSTEEWVVENRSNHLTQETQEKTRKQKHQPMDARKVSHQPVCSKGHEQKPLSSKATSVSKLVLSKEKYMQMFDSESSDEDNALAKKGLLCCSDKKKGMTFPTPNAAGKITHPTSSAKKAIRKEARPNGLAQIQEEGPTATNSPIESTYLPVAHMKSVSIDGSSGTSATFESPAKKAPKRGIRETSPLNGNELQQLISTIPIADEKASSLMEKVDNCIGRESFDDRNKDFMHMENSSTKTAVEKSTKQKRVSGKKSEIPKSIITNNEILEKNSTETLSEKQVAAKAKKQSVRKTGATGKPSTSRLKKSEKTKTTSSVTSTSKLEQVREEESDVSSEVLAKPKPQCSTTASILKQGGDGASNSEDDLQIALAMSKATYKEEQQKRKKTKREPSNKQPQSPAEKSMTVFNNQSVACNSTALANDTACYRVLPKRRGVKRAAAVSTTEEKTATNSSSSPTSSLEEMGSPTGGDPDCTVVTSTTGCEPPASERQEIPATIKITKRGILLHSPSAPEGASFTLTEQGLGKIIGERWARKYLKYHIGSRSFDSRHSVYYQPTPQLAAALSAPQDAQNIGNISGSSASDDDIFEQINRYGTVYSILENNSGDK
B2: HA-dCENP-C(1264-1411) [Drosophila melanogaster] / GFP-LacI-dCENP-C [Drosophila melanogaster] (parent)
chain 1: B1 chain 1
chain 2: MSKPQNNDTLELDDILSQPVKDKERFAAFMMRKLAENKPAQNDNLFGNFKLDFDLDFEVPLIKKSQAKPKSKLPEVQPLGELVSKNSAATEKVNEPPVDQAPNENVPPRRSPTLSPNNRRSMRRSGNVPGSDKLRRHAIRRRSRSCGRQLLPEFEETVNLTRSISSPVNFLPEISSTPCTEKQKEEVAKNTTRVETDKPAEKPMELSQEPEPENPLQTKVTSPARNPILAAEIEQICKERQSSFHKNVLQLDYSGRAPYSRPPTPSSPSVAGLRRTYTMEKGPAPGQLLLSPSHRYDTPSKMPVVKAKRFNQELMVPDTPERQSHDPAWQSEPQPEFVVPETQPQDLGELVQTLSRSAISPIVVINTSNSNRSVRRDAVAMKSVPTSPVTALSSPPIAPSPRRSAAASPQKSIAQLPRVEENMDAIMTDDESDEHPSTVPLNLAPSGGNTTRQRRLRSSNRARATIESQESSMRLLNLHKSVNAKKSKPRKTAIPLNKAPSAPINGEQFARELTRMSNYEILDLRKRNSLNEIYPLNGHRNHRSEKLILEEEIQRELLRRNLMDEAEGLPKQQSSDDSNEDYIPVPPKTQSLRTKSNDRSQGRGRPRSTRRDLPMTTELVNYLGLSQTLETRRKSSKDGKRCLYTKGSSDHEDNDSLSPVKLPRLSKSIQIVPPPPVSLRYSQSLQNLPCSGKFDFDNVVMAAPPDFHDSVNSDAIEIAPPPPEYVVNTRGRSTSGRKSNKNDLVLPPPGYEGGQEEEHDERPSQPRCTAKELQQSTQNGRRAMENELVPPPIEYVEEENRNNEQSRRSTKNGNLVDRNTHNAVEYCEPPEPPEYDDSDHGQASILRRSGKKLQHSKQSVQKSNKEQIIAPSYENNEDYDSDEEPIYNEEYGKEESQNKNVTRRKSDKDEMASHTLECIEGPDPNWNSSCNKQNRNHQNASKSKENDKLANRSSKSQKLSNPRQNAVGTEKSVALSNRGEECTEKSSDVMESLRVNTPTPPIDQNSDDVPSRNPSPSRTLLSDDVPSTSRAALEFLQRSQNMSKSRPPDESSADVVFKKPLAPAPRAKSKKGKSEVDKLKLAKMPVEAEELNTTGIRRSKRGQVPLQMSWCHTMDPSKFNFMSGFIEPRSKNSKTKKGNLSKAKKASATKPKPTVEKNLPDNRGPLCSSTPRISEKLPGAIPHSESLGLSTLTWEETEVQAEAEKVPKKRGRPKKAVGGVQTDTEAEPEPEPEPMISSVAPLTSDQEEPDVPDEQAPYTEAALGPVVFSTPLRDEQEEASTKLMQWLRGVGDAPPSASMSDENASVSSANELIFCQVDGIDYAFYNTKEKAMLGYMRFKPYQKRSMKQAKVHPLKLLVQFGEFNVETLAVGEEKEVHSVLRVGDMIEIDRGTRYSIQNAIDKVSVLMCIRS

The variants in one test derive from B1. The test is described as follows: LacO-tethering recruitment assay (HA immunofluorescence intensity at LacO). The note with it: with CAL1-GFP-LacI [Drosophila melanogaster]; parent: 0.68; read off a plot.
Regarding chain 1 L94E L143E, the response (normalized to GFP) is 0.12.

The next test covers variants of B2. Described as above. The note with it: with GFP-LacI-dCENP-C [Drosophila melanogaster]; parent: 1.6; read off a plot.
Take chain 1 L94E L143E: the response (normalized to GFP) is -0.05.
